Biological target: T1, fibroin sheet (Bombyx mori, UniProt P05790)
T1 construct: purchased Sigma-Aldrich
Test: Color intensity of modified fibroin sheet after glucose/HRP/4-aminoantipyrine chromogenic reaction
Type: biochemical
Details: fibroin sheet adsorbed from 0.3 mg/mL solution, 10 mM glucose, 1000 U/mL HRP, 5 minutes, ImageJ, average of five sheets
Experimental: After methanol was added to the collected sheet, methanol was removed and dried overnight. The measurement of the weight of the fibroin sheet cut into 20 mm×40 mm size confirmed that it was 1.25 μg/mm^2 fibroin sheet. Fibroin sheets of 5 mm×5 mm size were cut and added to an aqueous solution of 0.3 mg/mL Compound 1 (0.2 mL) and allowed to stand for 10 minutes. Fibroin sheets were immersed in PBS buffer (1 mL, pH7.4) containing 0.05 wt % Tween20 for 15 minutes×2 and in PBS (1 mL, pH7.4) for 1 minute. The modified fibroin sheet was obtained by drying at room temperature.
A fibroin sheet adsorbed with Compound 6 was prepared in the same manner as Manufacturing Example 2 except that 0.3 mg/mL Compound 6 aqueous solution was used instead of the aqueous solution of Compound 1.
1.5 μL of phosphate buffered saline (pH7.4) containing 10 mM glucose, 1000 U/mL HRP, 3.7 mM 4-aminoantipyrine, 6.4 mM sodium 3-[ethyl(m-tolyl) amino]-2 hydroxy-1 propanesulfonate was added dropwise to a fibroin sheet modified with Compound 6 obtained in Manufacturing Example 12 and allowed to stand in a wet box for 5 minutes. […] After drying the sheet, the sheet was read by a scanner to obtain image data. […] Five sheets were prepared and subjected to the same evaluation, and the average value of color intensity (Color Intensity, hereinafter CI value) was calculated. The calculated CI value was 54.5.

Row | Molecule | CI value (average color intensity)
1 | Compound 6: Thioflavin T acid bound to glucose oxidase (GOx); 5.6 molecules per GOx molecule (conjugate, UniProt P13006 17-605, looked up, Thioflavin T acid conjugated, 5.6 per GOx, 5.6 molecules per GOx molecule) Glucose oxidase: LPHYIRSNGIEASLLTDPKDVSGRTVDYIIAGGGLTGLTTAARLTENPNISVLVIESGSYESDRGPIIEDLNAYGDIFGSSVDHAYETVELATNNQTALIRSGNGLGGSTLVNGGTWTRPHKAQVDSWETVFGNEGWNWDNVAAYSLQAERARAPNAKQIAAGHYFNASCHGVNGTVHAGPRDTGDDYSPIVKALMSAVEDRGVPTKKDFGCGDPHGVSMFPNTLHEDQVRSDAAREWLLPNYQRPNLQVLTGQYVGKVLLSQNGTTPRAVGVEFGTHKGNTHNVYAKHEVLLAAGSAVSPTILEYSGIGMKSILEPLGIDTVVDLPVGLNLQDQTTATVRSRITSAGAGQGQAAWFATFNETFGDYSEKAHELLNTKLEQWAEEAVARGGFHNTTALLIQYENYRDWIVNHNVAYSELFLDTAGVASFDVWDLLPFTRGYVHILDKDPYLHHFAYDPQYFLNELDLLGQAAATQLARNISNSGAMQTYFAGETIPGDNLAYDADLSAWTEYIPYHFRPNYHGVGTCSMMPKEMGGVVDNAARVYGVQGLRVIDGSIPPTQMSSHVMTVFYAMALKISDAILEDYASMQ | 54.5
2 | GOx: glucose oxidase (manufactured by Sigma-Aldrich, G2133), unmodified comparison (protein, UniProt P13006 17-605, looked up) Glucose oxidase: LPHYIRSNGIEASLLTDPKDVSGRTVDYIIAGGGLTGLTTAARLTENPNISVLVIESGSYESDRGPIIEDLNAYGDIFGSSVDHAYETVELATNNQTALIRSGNGLGGSTLVNGGTWTRPHKAQVDSWETVFGNEGWNWDNVAAYSLQAERARAPNAKQIAAGHYFNASCHGVNGTVHAGPRDTGDDYSPIVKALMSAVEDRGVPTKKDFGCGDPHGVSMFPNTLHEDQVRSDAAREWLLPNYQRPNLQVLTGQYVGKVLLSQNGTTPRAVGVEFGTHKGNTHNVYAKHEVLLAAGSAVSPTILEYSGIGMKSILEPLGIDTVVDLPVGLNLQDQTTATVRSRITSAGAGQGQAAWFATFNETFGDYSEKAHELLNTKLEQWAEEAVARGGFHNTTALLIQYENYRDWIVNHNVAYSELFLDTAGVASFDVWDLLPFTRGYVHILDKDPYLHHFAYDPQYFLNELDLLGQAAATQLARNISNSGAMQTYFAGETIPGDNLAYDADLSAWTEYIPYHFRPNYHGVGTCSMMPKEMGGVVDNAARVYGVQGLRVIDGSIPPTQMSSHVMTVFYAMALKISDAILEDYASMQ | 30.8
